Where no end group is shown, it is not given here. The star is where a group is joined. FITC = O=C1OC2(c3ccc(O)cc3Oc3cc(O)ccc32)c2ccc(NC(=S)*)cc21
T1: FITC-labeled pepHePTP
T1 peptide: {FITC}-RLQERRGSNVALMLDV

B1: doubly-phosphorylated wild-type rat ERK2 oxidized with H2O2 (sulfenylated on C159) (enzyme)
chain: MAAAAAAGPEMVRGQVFDVGPRYTNLSYIGEGAYGMVCSAYDNLNKVRVAIKKISPFEHQTYCQRTLREIKILLRFRHENIIGINDIIRAPTIEQMKDVYIVQDLMETDLYKLLKTQHLSNDHICYFLYQILRGLKYIHSANVLHRDLKPSNLLLNTTCDLKICDFGLARVADPDHDHTGFLTEYVATRWYRAPEIMLNSKGYTKSIDIWSVGCILAEMLSNRPIFPGKHYLDQLNHILGILGSPSQEDLNCIINLKARNYLLSLPHKNKVPWNRLFPNADSKALDLLDKMLTFNPHKRIEVEQALAHPYLEQYYDPSDEPIAEAPFKFDMELDDLPKEKLKELIFEETARFQPGYRS

What was measured:
[1] = biological target: T1, FITC-labeled pepHePTP; experiment: fluorescence polarisation
[2] = biological target: B1; experiment: SPR

| fold increase in KD,app against untreated ERK2 [1] [fold] | Kd [2] [µM] | Binder |
| --- | --- | --- |
| ~100 | – | B1 |
| – | 58 | Ac-FQRKTLQRRNLKGLNLNL-NH2 [Lig-D peptide] |

Source: publication PMC10514464 (iScience, 2023)
